Reference: patent publication US20250188176A1 (INVETX, published 2025)
Where a chain is given by its changes, count along the chain named.

T1: Extracellular domain (ECD) of the canine IL-4 receptor alpha-V5 epitope-AviTag-His Tag (canine)
T1 construct: monomeric form isolated by size exclusion; also called canine IL-4RA-V5-Avi-His; canine IL-4RA
T1 chain: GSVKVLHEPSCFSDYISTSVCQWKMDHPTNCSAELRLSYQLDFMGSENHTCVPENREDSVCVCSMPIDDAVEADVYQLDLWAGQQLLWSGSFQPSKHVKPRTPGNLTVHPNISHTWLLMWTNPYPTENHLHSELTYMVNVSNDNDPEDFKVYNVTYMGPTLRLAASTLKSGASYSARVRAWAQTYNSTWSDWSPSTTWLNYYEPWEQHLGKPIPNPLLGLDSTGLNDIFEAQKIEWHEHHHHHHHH

B1: TB640_005 Fab-SASA VL-L101N (Fab, V domains shown)
VH: EVQLVESGGDLVKPGGSLRLSCVASGFTFRDYAMTWVRQAPGKGLQWVSLISGSGGKTYYADAVKGRFTISRDNAKNTLYLQMNSLRAEDTAVYYCAVDRLTKTIRPQYYGLWVWGQGTLVTVSS
VL: DIVMTQTPLSLSVSPGETASISCRSSQSLLYSIGYNYLDWYLQKPGQSPQGLIYLGSKRASGVPDRFSGSGSGTDFTLRISRVEANDTGVYYCMQGLQSPNTFGQGTKLEIKR
notes: not shown: SASA tag then His-tag
B2: TB640_005 Fab-SASA VL-T102G (Fab, V domains shown)
VH: B1 VH
VL: B1 VL with N101L, T102G
notes: as for B1
B3: TB640_005 Fab-SASA VL-S57T (Fab, V domains shown)
VH: B1 VH
VL: B1 VL with S57T, N101L
notes: as for B1
B4: TB640_005 Fab-SASA VL-T102N (Fab, V domains shown)
VH: B1 VH
VL: B1 VL with N101L, T102N
notes: as for B1
B5: TB640_005 Fab-SASA VL-Q95N (Fab, V domains shown)
VH: B1 VH
VL: B1 VL with Q95N, N101L
notes: as for B1
B6: TB640_005 Fab-SASA VL-Q27E (Fab, V domains shown)
VH: B1 VH
VL: B1 VL with Q27E, N101L
notes: as for B1
B7: TB640_005 Fab-SASA VL-T102L (Fab, V domains shown)
VH: B1 VH
VL: B1 VL with N101L, T102L
notes: as for B1
B8: TB640_005 Fab-SASA VL-Q27L (Fab, V domains shown)
VH: B1 VH
VL: B1 VL with Q27L, N101L
notes: as for B1
B9: TB640_005 Fab-SASA VL-Q27H (Fab, V domains shown)
VH: B1 VH
VL: B1 VL with Q27H, N101L
notes: as for B1
B10: TB640_005 Fab-SASA VL-S57N (Fab, V domains shown)
VH: B1 VH
VL: B1 VL with S57N, N101L
notes: as for B1
B11: TB640_005 Fab-SASA VL-S57H (Fab, V domains shown)
VH: B1 VH
VL: B1 VL with S57H, N101L
notes: as for B1
B12: TB640_005 Fab-SASA VL-T102S (Fab, V domains shown)
VH: B1 VH
VL: B1 VL with N101L, T102S
notes: as for B1
B13: TB640_005 Fab-SASA VL-Q27T (Fab, V domains shown)
VH: B1 VH
VL: B1 VL with Q27T, N101L
notes: as for B1

Molecular target: T1, Extracellular domain (ECD) of the …
Experiment: SPR, Fab-SASA captured on BSA;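 also: biacore T200 SPR, Fab-SASA variants from E. coli conditioned medium captured on BSA-coated CM5 chip, canine IL-4RA injected 120 s then 420 s dissociation, 1:1 model fit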

| Binder | Kd | Ratio WT-kd/clone-kd | koff | kon |
| --- | --- | --- | --- | --- |
| B1 | 9.76 nM | 0.3 | 0.00321 s⁻¹ | 328000 M⁻¹ s⁻¹ |
| B2 | 5.74 nM | 2.11 | 0.000451 s⁻¹ | 78500 M⁻¹ s⁻¹ |
| B3 | 15 nM | 0.91 | 0.00105 s⁻¹ | 70400 M⁻¹ s⁻¹ |
| B4 | 6.83 nM | 1.74 | 0.000548 s⁻¹ | 80100 M⁻¹ s⁻¹ |
| B5 | 4.15 nM | 1.99 | 0.00048 s⁻¹ | 116000 M⁻¹ s⁻¹ |
| B6 | 13.4 nM | 1.09 | 0.000873 s⁻¹ | 65300 M⁻¹ s⁻¹ |
| B7 | 6.53 nM | 1.7 | 0.000562 s⁻¹ | 86000 M⁻¹ s⁻¹ |
| B8 | 15.5 nM | 0.96 | 0.000996 s⁻¹ | 64200 M⁻¹ s⁻¹ |
| B9 | 14.9 nM | 0.97 | 0.000979 s⁻¹ | 65700 M⁻¹ s⁻¹ |
| B10 | 8.8 nM | 1.32 | 0.00072 s⁻¹ | 81800 M⁻¹ s⁻¹ |
| B11 | 8.2 nM | 1.41 | 0.000677 s⁻¹ | 82600 M⁻¹ s⁻¹ |
| B12 | 6.61 nM | 1.94 | 0.000492 s⁻¹ | 74400 M⁻¹ s⁻¹ |
| B13 | 15.9 nM | 0.86 | 0.00111 s⁻¹ | 69700 M⁻¹ s⁻¹ |
